Three substances from publication doi:10.1101/559005 can be followed below.

pKd: −log10 of the molar value.

By pKd is commonly meant −log10 of the Kd, conventionally taken in molar units. The low end stands for a high Kd, the high end for a low Kd.

In test [1] the target is ScSth1p bromodomain (residues 1250-1359), wild type (S. cerevisiae) (UniProt P32597). As to the kind of experiment: ITC. Background: Isothermal titration calorimetry measures the heat released or taken up as one component is titrated into another.
Test [2] concerns the target ScSth1p Ser1276Glu mutant bromodomain (S. cerevisiae) (UniProt P32597). As to the kind of experiment: ITC.

Regarding H3K14ac peptide, the pKd in test [1] was 4.74; in test [2], 5.52.

With H4K20ac peptide, the pKd is 4.32 in test [1] and 4.51 in test [2].

Substance HsH2AK15ac peptide had a pKd in test [1] of 4.36.
